According to US20230159603A1:

Molecular target: CD122-Fc (UniProt P14784)
Assay: SPR, construct immobilised, CD122-Fc flowed, after protease cleavage

Sequence of CD122-Fc (P14784 27-239 limits assumed): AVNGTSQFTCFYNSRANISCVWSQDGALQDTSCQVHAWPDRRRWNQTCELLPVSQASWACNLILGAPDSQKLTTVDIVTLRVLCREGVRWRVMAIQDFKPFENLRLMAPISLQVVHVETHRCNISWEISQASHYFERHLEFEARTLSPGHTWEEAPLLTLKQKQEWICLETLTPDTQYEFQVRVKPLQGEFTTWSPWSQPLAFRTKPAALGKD

Kd: 175 nM
B1: AK168 after protease cleavage (Fc fusion, from a related filing)
chain: LYHPSGPAPTSSSTKKTQLQLEHLLLDLQMILNGINNYKNPKLTAMLTAKFAMPKKATELKHLQCLEEALKPLEEVLNLAQSKNFHLRPRDLISNINVIVLELKGSETTFMCEYADETATIVEFLNRWITFAQSIISTLT
